T1: FITC-labeled MyoVa-GTD (human, UniProt Q9Y4I1 1448-1855, fluorescein isothiocyanate (FITC) label, site not stated)
T1 chain: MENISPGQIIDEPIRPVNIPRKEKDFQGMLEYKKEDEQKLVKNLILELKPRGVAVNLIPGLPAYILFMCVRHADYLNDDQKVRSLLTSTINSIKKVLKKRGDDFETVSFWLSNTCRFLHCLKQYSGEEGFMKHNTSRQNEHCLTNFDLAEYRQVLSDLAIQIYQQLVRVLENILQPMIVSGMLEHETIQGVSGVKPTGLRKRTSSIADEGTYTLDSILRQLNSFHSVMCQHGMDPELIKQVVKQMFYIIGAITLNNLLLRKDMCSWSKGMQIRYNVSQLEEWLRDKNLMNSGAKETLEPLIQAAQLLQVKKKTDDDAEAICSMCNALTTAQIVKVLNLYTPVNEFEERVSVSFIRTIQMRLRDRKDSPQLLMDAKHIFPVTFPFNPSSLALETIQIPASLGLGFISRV


Legend:
[1] = target: T1, FITC-labeled MyoVa-GTD; test: MST; 300 nM FITC-labeled MyoVa-GTD, serial dilution of RPGRIP1L-C2 domains; 50 mM HEPES, 150 mM NaCl, 5% glycerol, 0.05% tween-20, pH 7.2; Monolith NT.115, LED power 20%, MST power 60%; triplicate
[2] = target: T1, FITC-labeled MyoVa-GTD; test: MST

| Molecule | Kd [1] | Kd [2] |
| --- | --- | --- |
| RPGRIP1L-C2 domains | 3 to 9 µM | – |
| RPGRIP1L-C2_(CTERM) domain, purified, GST removed (domain or fragment) MQQGKDDVSLLSEGQLAEQSLASSEDETEITEDLEPEVEEDMSASDSDDCIIPGPISKNIKQPSEKIRIEIIALSLNDSQVTMDDTIQRLFVECRFYSLPAEETPVSLPKPKSGQWVYYNYSNVIYVDKENNKAKRDILKAILQKQEMPNRSLRFTVVSDPPEDEQDLECEDIGVAHVDLADMFQEGRDLIEQNIDVFDARADGEGIGKLRVTVEALHALQSVYKQYRDDLEA | – | 3.8 µM |
| RPGRIP1L-C2_(NTERM) domain, purified, GST removed (domain or fragment) RIHKLEAQLKDIAYGTKQYKFKPEIMPDDSVDEFDETIHLERGENLFEIHINKVTFSSEVLQASGDKEPVTFCTYAFYDFELQTTPVVRGLHPEYNFTSQYLVHVNDLFLQYIQKNTITLEVHQAYSTEYETIAACQLKFHEILEKSGRIFCTASLIGTKGDIPNFGTVEYWFRLRV | – | 2.8 µM |
| RPGRIP1L-C2MED domain, purified, GST removed (domain or fragment) STDSTDGNLNELHITIRCCNHLQSRASHLQPHPYVVYKFFDFADHDTAIIPSSNDPQFDDHMYFPVPMNMDLDRYLKSESLSFYVFDDSDTQENIYIGKVNVPLISLAHDRCISGIFELTDHQKHPAGTIHVILKWKFAYLPPSGSITTE | – | 8.9 µM |

— publication PMC5339802 (2017)
